Source: patent publication US20080176263

Assays:
[1] = system: TNO211 peptide (DABCYL-GABA-Pro-Gln-Gly-Leu-Glu(EDANS)-Ala-Lys-NH2)
[2] = system: Anaspec, Inc.'s FRET peptide XV (QXL520-y-Abu-Pro-Gln-Gly-Leu-Dab(5-FAM)-Ala-Lys-NH)
[3] = system: RH substrate
[4] = system: Substrate AA
[5] = system: T1, Peptide #15 (Biotin-aAbu-Pro-Gln-Gly-Leu-Lys(5FAM)-Ala-Lys-NH2)
T1 sequence: PQGLKAK

MMP-9, sequence (chain, as listed by the source): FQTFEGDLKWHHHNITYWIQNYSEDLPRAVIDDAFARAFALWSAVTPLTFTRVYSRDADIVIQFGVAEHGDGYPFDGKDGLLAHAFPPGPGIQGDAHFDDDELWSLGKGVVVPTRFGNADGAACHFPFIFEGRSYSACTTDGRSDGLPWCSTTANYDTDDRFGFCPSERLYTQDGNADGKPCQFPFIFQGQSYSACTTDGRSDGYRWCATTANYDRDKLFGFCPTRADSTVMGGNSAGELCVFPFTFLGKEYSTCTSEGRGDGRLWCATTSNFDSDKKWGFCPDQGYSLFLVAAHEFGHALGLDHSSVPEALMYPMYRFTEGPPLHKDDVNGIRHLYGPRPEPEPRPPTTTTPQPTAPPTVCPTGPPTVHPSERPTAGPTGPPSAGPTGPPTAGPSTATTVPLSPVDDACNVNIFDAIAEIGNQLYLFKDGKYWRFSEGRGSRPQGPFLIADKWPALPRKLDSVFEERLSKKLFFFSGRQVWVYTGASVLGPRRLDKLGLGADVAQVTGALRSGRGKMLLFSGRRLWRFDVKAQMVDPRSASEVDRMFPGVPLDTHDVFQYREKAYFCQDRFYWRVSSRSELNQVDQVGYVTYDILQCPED
Recombinant active pure MMP-9 from Calbiochem (Cat# PF024; 83 kDa form), sequence (chain, as listed by the source): as above

Substance: MMP-9
- protease activity (fluorescence from cleavage of substrate TNO211), relative to pronase [1]: 28±3%
- substrate specificity in the fluorogenic cleavage assay [1]: The substrate exhibited greater specificity for MMP-9 within the initial 30 minutes of the assay

Substance: Recombinant active pure MMP-9 from Calbiochem (Cat# PF024; 83 kDa form)
- time to a visible fluorescent signal from cleavage of the FRET peptide [2]: capable of generating a signal within 10 minutes for pure MMP-9 activity
- visually detectable fluorescent signal in MMP-9 spiked fetal bovine serum [2]: the spiked FBS generated as slightly detectable signal by 10 min with the 5-FAM-based peptide and an easily detectable signal by 30 min

Substance: clostridial collagenase
- protease activity (fluorescence from cleavage of substrate TNO211), relative to pronase [1]: 2±1%

Substance: dispase
- cleavage of the dye-labelled immobilized substrate (color generation) [3]: none of the enzyme preparations were successful in cleaving the RH substrate

Substance: elastase
- cleavage of the dye-labelled immobilized substrate (color generation) [3]: none of the enzyme preparations were successful in cleaving the RH substrate

Substance: pronase
- visible color from cleavage of the dye-labelled immobilized substrate [4]: AA substrate reacted with pronase and proteinase K did produce a visible color within 2.5 h at 37 °C Pronase generated the most noticeable color change
- fluorescence left after streptavidin agarose removal of uncleaved biotinylated peptide [5]: there was enough of a difference between the negative control and the other samples to stop at this point
- cleavage of the dye-labelled immobilized substrate (color generation) [3]: none of the enzyme preparations were successful in cleaving the RH substrate
- time to completion of the cleavage reaction at 1 ug/ml protease [1]: the pronase reaction reached completion within 13 minutes
- visual detection limit of protease by fluorescence of cleaved substrate [1]: 125 ng pronase was detected within 10 minutes

Substance: trypsin
- cleavage of the dye-labelled immobilized substrate (color generation) [3]: none of the enzyme preparations were successful in cleaving the RH substrate
